The text below walks through data of patent US20240067721A1 (UNIVERSITY OF BIRMINGHAM, published 2024).

Assay [1] deals with T1, GPVI on human washed platelets (human, UniProt Q9HCN6 21-339).
T1 construct: whole, on cells; also called platelet GPVI
T1 sequence (looked up): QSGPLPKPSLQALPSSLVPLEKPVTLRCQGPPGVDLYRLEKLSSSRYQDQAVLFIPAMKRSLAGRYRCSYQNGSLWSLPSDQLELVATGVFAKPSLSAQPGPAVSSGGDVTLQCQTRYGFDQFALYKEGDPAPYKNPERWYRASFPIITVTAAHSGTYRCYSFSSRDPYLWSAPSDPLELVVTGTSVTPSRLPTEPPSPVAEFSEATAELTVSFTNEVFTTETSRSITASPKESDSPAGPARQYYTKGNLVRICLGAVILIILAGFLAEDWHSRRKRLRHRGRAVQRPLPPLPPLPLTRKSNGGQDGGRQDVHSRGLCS
Nature of the assay: flow cytometry on washed platelets, 100 nM Nb28-AF647, with or without 500 nM Nb2. How it is done: a) Washed platelets were incubated in an aggregometer at 37° C. and 1200 rpm in the presence of Nb28 or PBS control prior to stimulation with 10 μg/ml Horm collagen and aggregation traces captured. Nb28 had no effect on aggregation. b) Thrombin inhibited whole blood was preincubated with either vehicle (PBS) or 500 nM of unlabelled Nb28 and then flowed over fibrillar collagen I utilising the Maastricht flow chamber at 1000/s. None of the five investigated parameters of thrombus formation or platelet activation were affected by Nb28. Each data point represents one donor (n=4), unpaired non-parametric t-test was utilized to test for significance.
Washed platelets were preincubated with 500 nM Nb2 or PBS vehicle control for 10 min, followed by addition of 100 nM Nb28-AF647 and immediate fixation. 50,000 events were acquired and Nb28-AF647 signal (FL4) measured with an Accuri C6 flow cytometer (BD) and data processed with the BD Accuri C6 Software.
A general note: A flow cytometer gives signals particle by particle.

The target of assay [2] is T2, recombinant GPVI-Fc (dimeric; D1 and D2 domains of GPVI fused to the Fc domain from IgG) (human, UniProt Q9HCN6 22-203).
T2 construct: range 22-203; also called GPVI-Fcγ; dimeric GPVI; not shown: Factor Xa cleavable junction and Fc domain from IgG (Sigplg+ vector)
T2 sequence (looked up): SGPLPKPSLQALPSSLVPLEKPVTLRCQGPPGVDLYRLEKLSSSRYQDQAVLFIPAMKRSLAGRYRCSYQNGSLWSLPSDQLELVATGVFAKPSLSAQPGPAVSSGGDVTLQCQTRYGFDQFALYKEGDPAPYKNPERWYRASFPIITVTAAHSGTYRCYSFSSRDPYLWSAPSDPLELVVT
The assay is described as follows: displacement of GPVI-Fc (100 nM) from collagen surface; Nb2 freeze-thawed, day 0. How it is done: (§1) Freshly made un-tagged nanobody 2 (4.2 mg/ml in PBS) was stored at 4° C. over a period of 72 hours. Samples were collected at 0, 24, 48 and 72 hours for ELISA and nanodrop analysis. 1 ml of Nb2 was also filtered using a Whatman 0.2 um syringe filter, and 50 μL was snap-frozen and thawed to determine the effects of both syringe filtering and freeze-thawing on nanobody function. The freeze-thawed sample was only tested between 0-48 hours after thawing. ELISA displacement assays were performed on each sample as described in ‘Solid-phase binding assay’. Nb2 concentrations were determined at each time point by measuring absorbance a 280 nm using a nanodrop ND-1000 spectrophotometer.
(§2) Nb2 stability at 4° C. was tested by comparing the ability for nb2 to displace GPVI-Fc binding to a collagen surface after 0-, 24-, 48- and 72-hours storage at 4° C. (FIG. 8). Nb2 was stored in PBS with no added preservatives. In addition, samples of nb2 that were freeze-thawed and an additional sample that had been filtered were also tested. […] There was an observed reduction in protein concentration of approximately 3% when filtering but it is not abnormal for small losses in protein yield when filtering.

Assay [3] addresses T2, recombinant GPVI-Fc (dimeric; D1 and D2 …). The assay is described as follows: displacement of GPVI-Fc (100 nM) from collagen surface; Nb2 freeze-thawed, day 1. The procedure: as §1, §2
Assay [4] has the same target. The assay is described as follows: displacement of GPVI-Fc (100 nM) from collagen surface; Nb2 freeze-thawed, day 2. How it is done:
as §1, §2

Assay [5] shares this target. Nature of the assay: displacement of GPVI-Fc (100 nM) from collagen surface; Nb2 syringe-filtered, day 0. How it is done: as §1, §2
The target is the same in assay [6]. The assay is described as follows: displacement of GPVI-Fc (100 nM) from collagen surface; Nb2 syringe-filtered, day 1. How it is done: as §1, §2
For assay [7] the target is unchanged. The assay is described as follows: displacement of GPVI-Fc (100 nM) from collagen surface; Nb2 syringe-filtered, day 2. The procedure:
as §1, §2

For assay [8] the target is unchanged. Nature of the assay: displacement of GPVI-Fc (100 nM) from collagen surface; Nb2 syringe-filtered, day 3. How it is done: as §1, §2
For assay [9] the target is unchanged. Nature of the assay: displacement of GPVI-Fc (100 nM) from collagen surface; Nb2 stored at 4 °C, non-filtered, day 0. The procedure:
as §1, §2

Assay [10] shares this target. The assay is described as follows: displacement of GPVI-Fc (100 nM) from collagen surface; Nb2 stored at 4 °C, non-filtered, day 1. How it is done: as §1, §2
Assay [11] has the same target. Nature of the assay: displacement of GPVI-Fc (100 nM) from collagen surface; Nb2 stored at 4 °C, non-filtered, day 2. The procedure:
as §1, §2

Assay [12] shares this target. Nature of the assay: displacement of GPVI-Fc (100 nM) from collagen surface; Nb2 stored at 4 °C, non-filtered, day 3. The procedure:
as §1, §2

B1: Nb28 fluorescently labelled with AlexaFluor 647 (Nb28-AF647) (VHH)
VHH: QVQLQESGGGLVQAGDSLRLSCAASGTYSMGWFRQAPGKEREFVAAISWSGGRTNYADSVKGRFTISRDNAKNTVYLQMNSLKPEDTAVYYCSAAIYDNVSSRIGSYTYWGQGTQVTVSS
modifications: AlexaFluor 647 dye on free amino groups (NHS-ester labelling)
notes: also called labelled Nb28
Regarding B1, the binding result in assay [1] is listed as “binds”.

B2: un-tagged Nb2 (thrombin-cleaved nanobody 2) (VHH)
VHH: QVQLQESGGGLVQPGGSLRLSCAAAGFTFDYYAIAWFRQAPGKEREGVSCISSSDGTTYYADSVKGRFTISKDNAKNTMYLQMNSLKPEDTAVYYCATSPLYSTNDRCISEDYDYWGQGTQVTVSS
notes: also called un-tagged nanobody 2
Consider B2, for which the IC50 in assay [2] came out at 46.5 nM; in [3] it was 29.8 nM; in assay [4], 44 nM; in assay [5], 45.7 nM; in [6], 40.3 nM; in assay [7], 35.2 nM. In addition, the half-maximal inhibitory concentration (IC50) in assay [8] was 37.1 nM; in [9] it was 37 nM; in assay [10] it was 54.4 nM; in assay [11], 34 nM; in assay [12], 32.4 nM.

Usually IC50 stands for the concentration needed to halve the response being measured.
